Paper PMC3829993

Assays:
[1] = substrate: NC(=O)C1=CN([C@@H]2O[C@H](COP(=O)(O)OP(=O)(O)OC[C@H]3O[C@@H](n4cnc5c(N)ncnc54)[C@H](O)[C@@H]3O)[C@@H](O)[C@H]2O)C=CC1; experiment: purified protein; conditions: varied: cofactor
[2] = substrate: NC(=O)C1=CN([C@@H]2O[C@H](COP(=O)(O)OP(=O)(O)OC[C@H]3O[C@@H](n4cnc5c(N)ncnc54)[C@H](OP(=O)(O)O)[C@@H]3O)[C@@H](O)[C@H]2O)C=CC1; experiment: purified protein; conditions: varied: cofactor

B1: SMFMO (Stenotrophomonas maltophilia K279a) (protein)
chain: MDSVDVVVIGGGQSGLSAGYFLRRSGLSYVILDAEASPGGAWQHAWHSLHLFSPAGWSSIPGWPMPASQGPYPARAEVLAYLAQYEQKYALPVLRPIRVQRVSHFGERLRVVARDGRQWLARAVISATGTWGEAYTPEYQGLESFAGIQLHSAHYSTPAPFAGMRVAIIGGGNSGAQILAEVSTVAETTWITQHEPAFLADDVDGRVLFERATERWKAQQEGREPDLPPGGFGDIVMVPPVLDARARGVLAAVPPPARFSPTGMQWADGTERAFDAVIWCTGFRPALSHLKGLDLVTPQGQVEVDGSGLRALAVPSVWLLGYGDWNGMASATLIGVTRYAREAVRQVTAYCADHQDR
Protein B1 has a Km [1] of 23.7 ± 9.1 M x 10^-6, a kcat [1] of 0.029 ± 0.003 s⁻¹ and a kcat/Km [1] of 1220 M⁻¹ s⁻¹. The Km [2] was 27.3 ± 5.3 M x 10^-6, the kcat [2] was 0.022 ± 0.002 s⁻¹ and the kcat/Km [2] was 805 M⁻¹ s⁻¹.
